Reference: patent US20230272390A1, “COMPOSITIONS AND METHODS FOR HEMOGLOBIN PRODUCTION” (THE CHILDREN'S HOSPITAL OF PHILADELPHIA, priority 2020, published 2023)

Biological target: T1, endogenous ZNF410 (Homo sapiens, UniProt Q86VK4)
T1 construct: endogenous in cells; host or cells: HUDEP-2 (HUDEP-2-Cas9) cells, differentiated
T1 sequence (Q86VK4 1-478): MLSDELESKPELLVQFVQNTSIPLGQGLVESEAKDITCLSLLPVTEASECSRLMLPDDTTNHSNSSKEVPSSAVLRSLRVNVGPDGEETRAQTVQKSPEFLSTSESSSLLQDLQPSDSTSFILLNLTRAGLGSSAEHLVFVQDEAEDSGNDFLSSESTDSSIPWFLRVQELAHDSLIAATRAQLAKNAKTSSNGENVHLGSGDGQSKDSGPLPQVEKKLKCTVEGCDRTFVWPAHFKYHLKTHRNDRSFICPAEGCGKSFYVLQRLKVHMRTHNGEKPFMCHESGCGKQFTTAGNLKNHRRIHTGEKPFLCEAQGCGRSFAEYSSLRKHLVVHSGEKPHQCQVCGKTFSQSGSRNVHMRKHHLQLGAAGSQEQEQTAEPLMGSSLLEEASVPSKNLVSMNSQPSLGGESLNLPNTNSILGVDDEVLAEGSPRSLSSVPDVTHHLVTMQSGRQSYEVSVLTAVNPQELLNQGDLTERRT
Experiment: RT-qPCR in HUDEP-2 cells overexpressing HA-tagged ZNF410 constructs
Type: cell-based
Experimental: HUDEP-2 cells were cultured and differentiated as described (Kurita, et al. (2013) PLoS One 8:e59890). Briefly, StemSpan™ Serum-Free Expansion Medium (SFEM) supplemented with 50 ng/ml human stem cell factor (SCF), 10 μM dexamethasone, 1 μg/ml doxycycline, 3 IU/ml erythropoietin and 1% penicillin/streptomycin was utilized for routine cell maintenance. Cell density was kept at 0.1-1×10^6/ml. HUDEP-2 cells were differentiated for 6-7 days in IMDM supplemented with 50 ng/ml human SCF, 3 IU/ml erythropoietin, 2.5% fetal bovine serum, 250 μg/ml holo-transferrin, 10 ng/ml heparin, 10 μg/ml insulin, 1 μg/ml doxycycline and 1% penicillin/streptomycin.
SgRNAs were cloned into a lentiviral U6-sgRNA-EFS-GFP/mCherry expression vector (LRG, Addgene: #65656) by BsmBI digestion. The ZNF410 cDNA (clone ID: OHu10535), CHD4 cDNA (clone ID: OHu28780) were purchased from GenScript and were sub-cloned into a lentiviral vector pSDM101-IRES-GFP. ZNF410 variants were sub-cloned into pSDM101-IRES-GFP vector. The N-terminal HA tag was introduced by PCR. For EMSA, the ZNF410 full length or different ZF versions were sub-cloned into mammalian expression vector pcDNA3.
Lentivirus was produced as described (Grevet, et al. (2018) Science 361:285-290). Briefly, 10-20 μg of expression vectors, 5-10 μg of pVSVG (pMD2.G) and 7.5-15 μg of psPAX2 package plasmids, and 80 μl of 1 mg/ml polyethylenimine (PEI) were mixed, incubated for 15-20 minutes, and added to HEK293T cells grown in 10 cm plates to above 90% confluence. Media were replaced 6-8 hours post transfection, virus was collected 24 hours and 48 hours post-transfection and pooled. For infection, virus-containing supernatant was mixed with the indicated cell lines with 8 μg/ml polybrene and 10 mM HEPES, and then spun at 2250 rpm for 1.5 hours at room temperature. Infected HUDEP-2 cells were selected for mCherry+ or GFP+ cell sorting at 48 hours post-infection.
Total RNA was purified using the RNeasy® Plus Mini Kit (Qiagen), including an on-column DNAse treatment using RNase-free DNase set (Qiagen) to remove genomic DNA. Reverse transcription was accomplished using iScript™ Supermix (Bio-Rad). qPCR reactions were prepared with Power SYBR® Green (ThermoFisher Scientific). Quantification was performed using the ΔΔCT method.
Overexpression of ZF1-5 but not ZF2-4 should compete with endogenous ZNF410 for chromatin binding, thus acting in a dominant-negative manner. To test this hypothesis, a construct containing HA-tagged ZF1-5 or ZF2-4 driven by the EF1α promoter was introduced via lentiviral infection into HUDEP-2 cells. As control, the expression of full-length HA-tagged ZNF410 was forced. […] Moreover, full-length HA-ZNF410 when overexpressed to similar levels to HA-ZF1-5 also produced similar binding patterns (FIG. 4A). […] Thus, the ZF region is sufficient for chromatin occupancy but insufficient for CHD4 gene activation. […] Finally, the impact of ZNF410 expression on γ-globin levels was also measured.

[1] = overexpression in HUDEP-2 cells

B1: ZF1-5: fragment of human ZNF410 comprising five zinc finger domains ZF1-5 (residues 217-366); dominant-negative when overexpressed (protein)
chain: KKLKCTVEGCDRTFVWPAHFKYHLKTHRNDRSFICPAEGCGKSFYVLQRLKVHMRTHNGEKPFMCHESGCGKQFTTAGNLKNHRRIHTGEKPFLCEAQGCGRSFAEYSSLRKHLVVHSGEKPHQCQVCGKTFSQSGSRNVHMRKHHLQLG
modifications: left off: small tags and cut ends
notes: fragment of human ZNF410 comprising five zinc finger domains ZF1-5 (residues 217-366); dominant-negative when overexpressed
- effect on expression of the other 6 ZNF410 bound genes [1]: did not impact
- reduction of CHD4 mRNA levels compared to control [1]: approximately 70%
- effect on γ-globin mRNA levels (overexpression in differentiated HUDEP-2 cells): significant increase
